In patent US20040039175:

Tested on: HIV-AB-KOX (synthetic construct)
Experiment: cell_activity
Conditions: LTR-luciferase, Jurkat, Tat+PMA+PHA

Sequence: AGCTTTCTACAAGGGACTTTCCGCTGGGGACTTTCCAGGGAGGCGTGGCCTGGGCGGGACTGGGGAGTGGCGTCCCTCAGATGCTGCATATAAGCAGCTGCTTTTTGCCTGTACTGGGTCTCTCTGGTTAGACCAGATCTGAGCCTGGGAGCTCTCTGGCTAACTAGGGAACCC (double strand) [HIV-1 LTR reporter]
- activity: 96 % inhibition
